In patent US20090298167A1 one finds Human IL-21R-BaF3 Neutralization IC50 data, which are given here for one substance.

In the assay the target is human IL-21 (human) (UniProt Q9HBE4). Kind of assay: cell-based or functional assay.
Chain of human IL-21 (human) (Q9HBE4 25-162 limits assumed): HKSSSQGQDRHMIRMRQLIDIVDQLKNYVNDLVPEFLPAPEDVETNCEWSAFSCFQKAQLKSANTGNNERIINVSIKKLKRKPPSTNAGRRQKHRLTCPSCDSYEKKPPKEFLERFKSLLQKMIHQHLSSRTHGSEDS

“human IL-21R-Fc (from UniProt Q9HBE5 20-232) (Fc fusion)” showed a Human IL-21R-BaF3 Neutralization IC50 of 0.2 nM.
